Test results: paper PMC9958480, “Structural insights into the recognition of telomeric variant repeat TTGGGG by broad-complex, tramtrack and bric-à-brac - zinc finger protein ZBTB10”

Biological target: T1, ZBTB10 ZF1-2 R767Q (human, UniProt Q96DT7 713-779, R767Q)
T1 sequence: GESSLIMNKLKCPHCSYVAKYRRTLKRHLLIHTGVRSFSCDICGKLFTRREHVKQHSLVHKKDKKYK
Assay: X-ray crystallography; Zn2+; 1.9 A, P1; ITC at 20 C, ~30 uM dsDNA in cell, ~300 uM protein in syringe; proteins dialyzed in 20 mM Tris-HCl pH 7.5, 150 mM NaCl (ITC buffer not separately stated)
Details: protein: recombinant; tags: MBP removed by PreScission; 5' overhang 1 nt on each strand (T and A)

B1: TTAGGG crystal duplex (dsDNA)
DNA 1: TTAGGGTTATA
DNA 2: ATATAACCCTA
  binding result: binds
